From patent US12630600B2 (MEDIMMUNE LIMITED, priority 2022, dated 2026)
Starred links: 1 amine or outer side, 2 acyl side, 3 side chain; linkers in the order of their positions; H or OH if unused. Non-standard residues stand in square brackets, D forms with d. Groups on a side chain read outwards from the residue. No end group written: not given here. *: point of attachment. C20 diacid = O=C(O)CCCCCCCCCCCCCCCCCCC(=O)*; C18 diacid = O=C(O)CCCCCCCCCCCCCCCCC(=O)*; γGlu = O=C(O)[C@H](CCC(=O)[*:2])N[*:1]; αMeF = C[C@](N)(Cc1ccccc1)C(=O)O; PEG4 = NCCOCCOCCOCCOCCC(=O)O; AEEA = NCCOCCOCC(=O)O; Aib = CC(C)(N)C(=O)O

B1: Peptide 274 (peptide)
peptide: H[Aib]HGS[αMeF]TSDVSK[αMeF]LDSRAAK([AEEA-γGlu-γGlu-C18 diacid])D[αMeF]VQ[Aib]IANT-NH2
B2: Peptide 269 (peptide)
peptide: H[Aib]HGS[αMeF]TSDVSK[αMeF]LDSRAAK([PEG4-γGlu-γGlu-C20 diacid])D[αMeF]VQ[Aib]IANT-NH2
modifications: N-terminus assumed
SMILES: CC[C@H](C)[C@H](NC(=O)C(C)(C)NC(=O)[C@H](CCC(N)=O)NC(=O)[C@@H](NC(=O)[C@](C)(Cc1ccccc1)NC(=O)[C@H](CC(=O)O)NC(=O)[C@H](CCCCNC(=O)CCOCCOCCOCCOCCNC(=O)CC[C@H](NC(=O)CC[C@H](NC(=O)CCCCCCCCCCCCCCCCCCC(=O)O)C(=O)O)C(=O)O)NC(=O)[C@H](C)NC(=O)[C@H](C)NC(=O)[C@H](CCCNC(=N)N)NC(=O)[C@H](CO)NC(=O)[C@H](CC(=O)O)NC(=O)[C@H](CC(C)C)NC(=O)[C@](C)(Cc1ccccc1)NC(=O)[C@H](CCCCN)NC(=O)[C@H](CO)NC(=O)[C@@H](NC(=O)[C@H](CC(=O)O)NC(=O)[C@H](CO)NC(=O)[C@@H](NC(=O)[C@](C)(Cc1ccccc1)NC(=O)[C@H](CO)NC(=O)CNC(=O)[C@H](Cc1c[nH]cn1)NC(=O)C(C)(C)NC(=O)[C@@H](N)Cc1c[nH]cn1)[C@@H](C)O)C(C)C)C(C)C)C(=O)N[C@@H](C)C(=O)N[C@@H](CC(N)=O)C(=O)N[C@H](C(N)=O)[C@@H](C)O
B3: Peptide 273 (peptide)
peptide: H[Aib]HGS[αMeF]TSDVSK[αMeF]LDSRAAK([AEEA-C18 diacid])D[αMeF]VQ[Aib]IANT-NH2
B4: Peptide 268 (peptide)
peptide: H[Aib]HGS[αMeF]TSDVSK[αMeF]LDSRAAK([AEEA-γGlu-C20 diacid])D[αMeF]VQ[Aib]IANT-NH2
modifications: N-terminus assumed
SMILES: CC[C@H](C)[C@H](NC(=O)C(C)(C)NC(=O)[C@H](CCC(N)=O)NC(=O)[C@@H](NC(=O)[C@](C)(Cc1ccccc1)NC(=O)[C@H](CC(=O)O)NC(=O)[C@H](CCCCNC(=O)COCCOCCNC(=O)CC[C@H](NC(=O)CCCCCCCCCCCCCCCCCCC(=O)O)C(=O)O)NC(=O)[C@H](C)NC(=O)[C@H](C)NC(=O)[C@H](CCCNC(=N)N)NC(=O)[C@H](CO)NC(=O)[C@H](CC(=O)O)NC(=O)[C@H](CC(C)C)NC(=O)[C@](C)(Cc1ccccc1)NC(=O)[C@H](CCCCN)NC(=O)[C@H](CO)NC(=O)[C@@H](NC(=O)[C@H](CC(=O)O)NC(=O)[C@H](CO)NC(=O)[C@@H](NC(=O)[C@](C)(Cc1ccccc1)NC(=O)[C@H](CO)NC(=O)CNC(=O)[C@H](Cc1c[nH]cn1)NC(=O)C(C)(C)NC(=O)[C@@H](N)Cc1c[nH]cn1)[C@@H](C)O)C(C)C)C(C)C)C(=O)N[C@@H](C)C(=O)N[C@@H](CC(N)=O)C(=O)N[C@H](C(N)=O)[C@@H](C)O
B5: Peptide 267 (peptide)
peptide: H[Aib]HGS[αMeF]TSDVSK[αMeF]LDSRAAK([PEG4-γGlu-C20 diacid])D[αMeF]VQ[Aib]IANT-NH2
B6: Peptide 279 (peptide)
peptide: H[Aib]HGS[αMeF]TSDVSK[αMeF]LDSRAAK([AEEA-γGlu-γGlu-C20 diacid])D[αMeF]VQ[Aib]IANT-NH2
B7: Peptide 280 (peptide)
peptide: H[Aib]HGS[αMeF]TSDVSK[αMeF]LDSRAAK([AEEA-AEEA-γGlu-C20 diacid])D[αMeF]VQ[Aib]IANT-NH2
B8: Peptide 277 (peptide)
peptide: H[Aib]HGS[αMeF]TSDVSK[αMeF]LDSRAAK([AEEA-AEEA-C20 diacid])D[αMeF]VQ[Aib]IANT-NH2
B9: Peptide 275 (peptide)
peptide: H[Aib]HGS[αMeF]TSDVSK[αMeF]LDSRAAK([γGlu-γGlu-C20 diacid])D[αMeF]VQ[Aib]IANT-NH2
B10: Peptide 276 (peptide)
peptide: H[Aib]HGS[αMeF]TSDVSK[αMeF]LDSRAAK([γGlu-C20 diacid])D[αMeF]VQ[Aib]IANT-NH2
B11: Peptide 278 (peptide)
peptide: H[Aib]HGS[αMeF]TSDVSK[αMeF]LDSRAAK([AEEA-C20 diacid])D[αMeF]VQ[Aib]IANT-NH2
B12: Peptide 266 (peptide)
peptide: H[Aib]HGS[αMeF]TSDVSK[αMeF]LDSRAAK([AEEA-γGlu-AEEA-γGlu-C20 diacid])D[αMeF]VQ[Aib]IANT-NH2
B13: Peptide 270 (peptide)
peptide: H[Aib]HGS[αMeF]TSDVSK[αMeF]LDSRAAK([γGlu-γGlu-C18 diacid])D[αMeF]VQ[Aib]IANT-NH2
B14: Peptide 272 (peptide)
peptide: H[Aib]HGS[αMeF]TSDVSK[αMeF]LDSRAAK([AEEA-AEEA-C18 diacid])D[αMeF]VQ[Aib]IANT-NH2
B15: Peptide 271 (peptide)
peptide: H[Aib]HGS[αMeF]TSDVSK[αMeF]LDSRAAK([γGlu-C18 diacid])D[αMeF]VQ[Aib]IANT-NH2
modifications: N-terminus assumed
SMILES: CC[C@H](C)[C@H](NC(=O)C(C)(C)NC(=O)[C@H](CCC(N)=O)NC(=O)[C@@H](NC(=O)[C@](C)(Cc1ccccc1)NC(=O)[C@H](CC(=O)O)NC(=O)[C@H](CCCCNC(=O)CC[C@H](NC(=O)CCCCCCCCCCCCCCCCC(=O)O)C(=O)O)NC(=O)[C@H](C)NC(=O)[C@H](C)NC(=O)[C@H](CCCNC(=N)N)NC(=O)[C@H](CO)NC(=O)[C@H](CC(=O)O)NC(=O)[C@H](CC(C)C)NC(=O)[C@](C)(Cc1ccccc1)NC(=O)[C@H](CCCCN)NC(=O)[C@H](CO)NC(=O)[C@@H](NC(=O)[C@H](CC(=O)O)NC(=O)[C@H](CO)NC(=O)[C@@H](NC(=O)[C@](C)(Cc1ccccc1)NC(=O)[C@H](CO)NC(=O)CNC(=O)[C@H](Cc1c[nH]cn1)NC(=O)C(C)(C)NC(=O)[C@@H](N)Cc1c[nH]cn1)[C@@H](C)O)C(C)C)C(C)C)C(=O)N[C@@H](C)C(=O)N[C@@H](CC(N)=O)C(=O)N[C@H](C(N)=O)[C@@H](C)O

Key:
human GLP-1 receptor = human GLP-1 receptor (human, UniProt P43220); test: cell-based or functional assay
human glucagon receptor = human glucagon receptor (human, UniProt P47871); test: cell-based or functional assay

| Binder | hGLP-1R EC50 (pM) (human GLP-1 receptor) | hGluc-R EC50 (pM) (human glucagon receptor) |
| --- | --- | --- |
| B1 | 27.1 | 31.3 |
| B2 | 52 | 271 |
| B3 | 22.1 | 23.3 |
| B4 | 39.5 | 29.3 |
| B5 | 65.6 | 128 |
| B6 | 86.5 | 150 |
| B7 | 78.3 | 155 |
| B8 | 49.5 | 57.3 |
| B9 | 111 | 175 |
| B10 | 143 | 91.4 |
| B11 | 78.9 | 83.5 |
| B12 | 66.5 | 293 |
| B13 | 24.4 | 31.3 |
| B14 | 15.7 | 14.3 |
| B15 | 54.6 | 28 |
